Laboratory results reported in patent US11795488B2, “Methods for enzymatic peptide ligation” (NANYANG TECHNOLOGICAL UNIVERSITY, priority 2016, dated 2023).

B1: sortase A: bacterial sortase commonly used to catalyze transpeptidation reactions; recognizes LPXTG (protein, UniProt Q2FV99 1-206, looked up)
Sortase A: MKKWTNRLMTIAGVVLILVAAYLFAKPHIDNYLHDKDKDEKIEQYDKNVKEQASKDKKQQAKPQIPKDKSKVAGYIEIPDADIKEPVYPGPATPEQLNRGVSFAEENESLDDQNISIAGHTFIDRPNYQFTNLKAAKKGSMVYFKVGNETRKYKMTSIRDVKPTDVGVLDEQKGKDKQLTLITCDDYNEKTGVWEKRKIFVATEVK
B2: Cys247Ala: OaAEP1 Cys247Ala (Quicklase), Asx-specific peptide ligase having the amino acid sequence of SEQ ID NO:1 (protein, listed as Ovaloparmena affinis)
chain: MVRYLAGAVLLLVVLSVAAAVSGARDGDYLHLPSEVSRFFRPQETNDDHGEDSVGTRWAVLIAGSKGYANYRHQAGVCHAYQILKRGGLKDENIVVFMYDDIAYNESNPRPGVIINSPHGSDVYAGVPKDYTGEEVNAKNFLAAILGNKSAITGGSGKVVDSGPNDHIFIYYTDHGAAGVIGMPSKPYLYADELNDALKKKHASGTYKSLVFYLEACESGSMFEGILPEDLNIYALTSTNTTESSWAYYCPAQENPPPPEYNVCLGDLFSVAWLEDSDVQNSWYETLNQQYHHVDKRISHASHATQYGNLKLGEEGLFVYMGSNPANDNYTSLDGNALTPSSIVVNQRDADLLHLWEKFRKAPEGSARKEEAQTQIFKAMSHRVHIDSSIKLIGKLLFGIEKCTEILNAVRPAGQPLVDDWACLRSLVGTFETHCGSLSEYGMRHTRTIANICNAGISEEQMAEAASQACASIP

Legend:
[1] = tested on: ubiquitin with C-terminal Asn-Gly-Leu and peptide having N-terminal residues GlyLeu; details: comparison value; cited from earlier work
peptide substrate = assay: Comparison of cyclization efficiency of gate-keeper Cys247 mutants (MALDI-TOF MS); assay type: biochemical
Protocol: (§1) Native and modified amino acids were purchased from Sigma-Aldrich (USA). All peptides used in this manuscript were synthesized in-house using the solid-phase method and HPLC purified. Cyclization assays were performed in 50-μl reaction mixtures containing 20 mM phosphate buffer, ligases (5 to 700 nM) and peptide substrates (10 to 300 μM). Each reaction was performed in triplicate at 37° C. and quenched by adding 5 μl of 1 M HCl solution. The peptides were separated by using a reversed-phase C18 analytical column (150×2.1 mm, Vydac) with a linear gradient from 10% to 50% acetonitrile over 15 min on a Nexera UHPLC system (Shimadzu). For kinetic analysis, the concentrations of WT OaAEP1, mutant OaAEP1, and butelase 1 were fixed at 700 nM, 50 nM, and 20 nM, respectively. The cyclization velocities were calculated by converting the HPLC-peak areas of remained linear precursors or the cyclized products into concentrations. The identity of each HPLC peak was analyzed by MALDI-TOF MS (ABI 4800 MALDI TOF/TOF). The velocities were input into GraphPad Prism (GraphPad Software, San Diego) to obtain the Michaelis-Menten curve and the kinetic parameters (kcat and Km). Comparison for the cyclization efficiency of various OaAEP1 mutants were performed in a volume of 20 μl of the reaction mixture and analyzed by MALDI-TOF MS after 10 mins or 1 hour ligation reaction.
The pre-ligation conformation of OaAEP1 captured in the present structure was then analyzed to identify several key features that could differentiate an AEP protease from an AEP-like ligase. […] In contrast to AEP proteases, the surface of OaAEP1 facing the catalytic Cys217 appears to be more widely open. Three cysteine residues (Cys247, Cys250, Cys264) are aligned along a shallow cleft at the surface of the enzyme (FIGS. 3C and 3E). Unlike the surface of AEP proteases that contains several bulges, both butelase 1 (using a homology model based on OaAEP1b) and OaAEP1 have residues with smaller side-chains along this patch. A disulfide bond is formed between Cys250 and Cys264, which are conserved in AEP-like ligases butelase 1 and OaAEP1b. This covalent bond is likely to stabilize the local structure and provide an adequate surface allowing the approach of an N-terminal amine incoming group. Conversely, the corresponding surface patch of AEP proteases (PDB: 4AWA) is lined with residues having bulky side-chains like Tyr (FIG. 3E) blocking this channel. It was therefore hypothesized that residue Cys247 which is located at the extremity of the substrate channel is likely to function as a final nucleophile filter (or “gate-keeper”), allowing attack from the N-terminal amine to complete the ligation reaction. […]

[2] = tested on: ubiquitin and SNAP tag protein; assay: Ligation of two well-folded proteins; assay type: biochemical
Protocol: (§2) (a) Fluorescence detection using 02 benzylcytosine-Alexa647 of the SNAP protein and SDS PAGE analysis with Comassie blue staining detection of the protein substrate and ligated products. The reaction is schematically depicted as inset. Cys247Ala ligates well folded protein well. […] (b) As little as 30 nM Cys247Ala catalyze ligation of 100 μM Ubiquitin and 500 μM biotin labelled peptide efficiently in 30 min, at room temperature, in pH 7.4 PBS buffer.
(§3) The ability of Cys247Ala to ligate ubiquitin with a peptide was first tested. The three residues“Asn-Gly-Leu” were added to the C-terminus of ubiquitin to make it recognizable by Cys247Ala. Another peptide having N-terminal residues GlyLeu was used as the add-on component. At a protein: peptide molar ratio of 1:5, Cys247Ala catalyzed the ligation of more than 90% ubiquitin with the peptide within 10 min (FIG. 6). An amount of 30 nM of Cys247Ala was enough for the reaction compared to 10-30 μM of sortase A typically required to perform productive ligations. […] Ubiquitin having the same “Asn-Gly-Leu” modification at its C-terminal end and a N-terminal modified SNAP (NEB) tag protein were used as substrates. […] Protein ligation can be performed within minutes at neutral pH and at room temperature.

[3] = tested on: peptide substrate "GLPVSTKPVATRNGL" (SEQ ID NO: 18); assay: Peptide cyclization assay, kinetic analysis (HPLC/MS); assay type: biochemical
Protocol: as §1
The peptide cyclization activity of mature OaAEP1 was then analyzed using MS and the peptide substrate “[…]” (SEQ ID NO: 18) (FIG. 5A). The turn-over rate (kcat) for OaAEP1 is 0.052 s^−1, a value in good agreement with the previous report (Harris, K. S., et al., Nat Commun, 2015. 6: p. 10199). Likewise, the cyclization activity of butelase 1 extracted from plant was measured using the 15 residues peptide “[…]” (SEQ ID NO: 19) (FIG. 5A) leading to a kcat about 90 times faster than OaAEP1 b.

RAW cell = assay: Cell surface labeling with fluorescently tagged SNAP protein; assay type: cell-based, human; details: 10 μM SNAP-NGL, 0.1 μM Quicklase, 30 minutes˜1 hour
Protocol: (§4) (b) Fluorecently tagged SNAP (New England Biolabs) protein was conjugated to the intrinsic cellular surface proteins of two different cell lines, RAW cell ([…]) and HEK293T (human epithelial cell line). 10 μM modified SNAP protein (with additional C-terminal NGL residues, lane 1 sample) with or without (lane 2 and lane 5 samples) coincubation of 0.1 μM Quicklase were added to cell culture, pre-washed with PBS buffer. After 30 minutes˜1 hour incubation, cells were rinsed with additional PBS buffer (lane 3 and lane 6 were first wash samples), two times. The remaining cell was harvested and lysed with SDS loading buffer (lane 4 and 7 samples). All samples were examined using SDS-PAGE, and only the covalently fluorescently tagged SNAP protein carried the signal on the gel, which were shown as dark bands in (b). […] (c) Surface modified RAW cells were examined using a fluorescent microscope, bright spots on the cellular surface indicated successful surface labelling of intrinsic cellular membrane.
(§5) 0.1 to 1 μM of OaAEP1 Cys247Ala was added to cellular culture in standard cell culture conditions. 1-20 μM labeling protein tags were added to the reaction afterwards, and incubated for 30-45 mins at 37° C. and standard culturing condition, before both excess enzymes and labelling tags were washed away. […]

HEK293T = assay: as above; assay type: cell-based, human; details: 10 μM SNAP-NGL, 0.1 μM Quicklase, 30 minutes˜1 hour
Protocol: as §4, §5

[4] = tested on: ubiquitin with C-terminal Asn-Gly-Leu and peptide having N-terminal residues GlyLeu; assay: Ligation of ubiquitin with a peptide; assay type: biochemical
Protocol: as §2, §3

| Molecule | amount of enzyme typically required to perform productive ligations [1] | alternative reaction when N-terminal amine is not available (peptide substrate; N-terminal amine group acetylated) | ligase activity compared to WT OaAEP1 (peptide substrate; gate-keeper position 247 mutants) | protein ligation activity (control ligation experiments) [2] | individual substrate proteins ligated into a single polypeptide product ([2]; 5 μM SNAP tag protein, 8 μM ubiquitin, 100 nM enzyme) | ligation of SNAP tag protein with Ubiquitin ([2]; 5 μM SNAP tag, 100 nM Cys247Ala, 4000 nM wild type OaAEP1b) | kcat relative to WT OaAEP1b [3] | peptide ligase catalytic activity relative to wild type OaAEP1 [3] | conjugation of SNAP protein to intrinsic cellular surface proteins (RAW cell) | conjugation of SNAP protein to intrinsic cellular surface proteins (HEK293T) | enzyme concentration that catalyzes ligation efficiently ([4]; 100 μM Ubiquitin, 500 μM biotin labelled peptide, 30 min, room temperature, pH 7.4 PBS) | ubiquitin ligated with the peptide ([4]; protein: peptide molar ratio 1:5, within 10 min) | amount of enzyme enough for the reaction ([4]; ubiquitin-peptide ligation) |
| --- | --- | --- | --- | --- | --- | --- | --- | --- | --- | --- | --- | --- | --- |
| B1 | 10 to 30 µM | – | – | – | – | – | – | – | – | – | – | – | – |
| B2 | – | side chain ligation is more preferred | significantly improved enzymatic properties | protein ligation activity could only be observed in the presence of the Cys247Ala protein | more than 60% | efficiently ligated | approximately 160 times | ~160 times | significant amount of intrinsic proteins in RAW and HEK283T cells were conjugated with SNAP protein | significant amount of intrinsic proteins in RAW and HEK283T cells were conjugated with SNAP protein | 30 nM | more than 90% | 30 nM |
